{"source": "paper PMC2275626", "biological_target": "acetamidofluorescein-F-actin on antifluorescein IgG-Sephacryl S-1000 beads (rabbit) (UniProt P68135)", "test": "co-sedimentation", "note": "pKi: −log10 of the molar value. Where “and” joins values, the source holds several entries; their conditions need not be identical. Equal entries are not always repeated.", "data": [{"substance": "myosin subfragment-1 (domain or fragment)", "values": [{"measurement": "pKi", "result": "7.40 and 7.60 and 7.10"}]}]}
